We go through one molecule from publication PMC8421139.

What all share (test): EMSA
For orientation: Mobility shift assays separate free from complexed probe on a gel.

The target of one data set is TDRD3 E691K (UniProt A0ACI8Q7A3 1-93+Q9H7E2:1-651, E598K;internal_change).
The target of another data set is T1, GST-TDRD3 UBA (UniProt Q9H7E2 193-233).
T1 chain: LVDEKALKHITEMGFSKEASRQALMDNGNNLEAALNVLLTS

A further data set deals with GST-TDRD3 Tudor (UniProt Q9H7E2 555-615).

For CCTCGCAAACTACTTAGATGTCATCCGCGAGC (ssDNA) [ssDNA probe (R-loop forward oligo)], the values for the binding result in the data set with TDRD3 E691K, with GST-TDRD3 UBA and with GST-TDRD3 Tudor were “binds”, “no binding” and “no binding”, respectively.
